The record followed here is patent US20190225703A1 (INNATE PHARMA, published 2019).

Experiment [1] addresses T1, human CD73 (ecto-5'-nucleotidase) expressed at the cell surface (human, UniProt P21589 27-549).
T1 construct: Used for huCD73-expressing recombinant cell lines, MDA-MB-231 cells (endogenous CD73), HEK-293T cells with wild type CD73, and primary T and B cells; also called huCD73; wild type CD73
T1 sequence: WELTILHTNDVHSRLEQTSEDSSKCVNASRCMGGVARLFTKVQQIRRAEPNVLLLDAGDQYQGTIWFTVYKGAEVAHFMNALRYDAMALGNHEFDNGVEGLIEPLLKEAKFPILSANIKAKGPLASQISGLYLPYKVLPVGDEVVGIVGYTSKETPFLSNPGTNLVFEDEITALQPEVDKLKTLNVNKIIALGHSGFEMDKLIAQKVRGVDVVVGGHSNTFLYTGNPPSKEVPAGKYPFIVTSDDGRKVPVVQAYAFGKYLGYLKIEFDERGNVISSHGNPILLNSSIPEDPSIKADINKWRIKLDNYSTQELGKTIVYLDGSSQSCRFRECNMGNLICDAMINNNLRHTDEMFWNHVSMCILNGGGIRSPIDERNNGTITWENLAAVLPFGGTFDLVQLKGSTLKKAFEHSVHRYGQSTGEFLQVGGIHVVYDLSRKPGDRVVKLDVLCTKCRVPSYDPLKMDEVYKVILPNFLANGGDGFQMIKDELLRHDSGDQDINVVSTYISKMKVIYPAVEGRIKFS
As to the kind of experiment: flow cytometry titration on human-CD73-expressing cell line. On the procedure:
(§1) 10⁵ cells resuspended in PBS/0.2% BSA/0.02% NaN3 (named “staining buffer”) are distributed into round bottom 96W-microplates. Dose-range of anti-CD73 antibodies was added to the plates and cells are incubated for 45 min at 4° C. Cells were washed three times in staining buffer by spinning plates at 400 g for 3 min at 4° C. PE-coupled goat anti-mouse or goat anti-human IgG Fc fragment secondary antibodies (Beckman Coulter) diluted in staining buffer were added to the cells and plates are incubated for 30 additional minutes at 4° C. Cells were washed three times as described above and analyzed on an Accury C6 flow cytometer equipped with an HTFC plate reader.
(§2) Median of fluorescence vs. antibodies concentration was plotted on graphs and EC50 is calculated using GraphPad Prism program.

The target in another experiment is T2, human CD73 mutant 3 (human, UniProt P21589 27-549).
T2 construct: Transfected in HEK-293T cells
T2 chain: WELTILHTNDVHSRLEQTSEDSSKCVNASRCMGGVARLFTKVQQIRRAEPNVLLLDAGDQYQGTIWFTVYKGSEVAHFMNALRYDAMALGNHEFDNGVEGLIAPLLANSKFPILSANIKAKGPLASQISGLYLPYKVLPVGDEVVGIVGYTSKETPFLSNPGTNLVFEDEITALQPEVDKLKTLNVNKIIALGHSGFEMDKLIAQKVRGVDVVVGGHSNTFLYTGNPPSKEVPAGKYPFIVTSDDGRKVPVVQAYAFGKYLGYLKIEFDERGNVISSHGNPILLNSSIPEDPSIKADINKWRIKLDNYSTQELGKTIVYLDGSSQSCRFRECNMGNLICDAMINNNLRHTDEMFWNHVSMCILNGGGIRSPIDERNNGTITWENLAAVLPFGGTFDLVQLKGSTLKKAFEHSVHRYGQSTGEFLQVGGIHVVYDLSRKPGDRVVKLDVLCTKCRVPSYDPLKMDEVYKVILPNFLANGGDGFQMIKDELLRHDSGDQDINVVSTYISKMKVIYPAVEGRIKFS
The experiment can be described thus: flow cytometry titration on HEK-293T cells transfected with CD73 mutant 3. Background: In flow cytometry, cells or beads pass a laser one at a time.

The next experiment has as its target T3, human CD73 mutant 5 (human, UniProt P21589 27-549).
T3 construct: Transfected in HEK-293T cells
T3 chain: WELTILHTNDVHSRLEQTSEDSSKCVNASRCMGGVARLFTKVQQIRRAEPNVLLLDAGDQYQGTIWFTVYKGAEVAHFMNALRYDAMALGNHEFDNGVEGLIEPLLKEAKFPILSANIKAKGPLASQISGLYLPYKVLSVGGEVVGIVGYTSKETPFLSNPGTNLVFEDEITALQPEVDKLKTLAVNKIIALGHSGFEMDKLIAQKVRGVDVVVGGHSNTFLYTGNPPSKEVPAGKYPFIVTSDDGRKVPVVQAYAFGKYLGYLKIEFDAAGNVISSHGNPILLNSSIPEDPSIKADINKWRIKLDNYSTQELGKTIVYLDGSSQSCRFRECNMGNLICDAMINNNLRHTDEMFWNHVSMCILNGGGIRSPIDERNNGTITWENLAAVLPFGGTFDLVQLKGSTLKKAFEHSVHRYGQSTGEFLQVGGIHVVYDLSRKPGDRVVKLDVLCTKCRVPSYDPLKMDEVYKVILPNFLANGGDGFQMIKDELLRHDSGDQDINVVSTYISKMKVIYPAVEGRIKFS
The experiment can be described thus: flow cytometry titration on HEK-293T cells transfected with CD73 mutant 5.

For experiment [2], the target named is T1, human CD73 (ecto-5'-nucleotidase) …. The experiment can be described thus: flow cytometry titration on MDA-MB-231 cells, endogenous CD73. On the procedure:
as §1, §2

A further experiment deals with T4, human CD73 mutant 4 (human, UniProt P21589 27-549).
T4 construct: Transfected in HEK-293T cells
T4 chain: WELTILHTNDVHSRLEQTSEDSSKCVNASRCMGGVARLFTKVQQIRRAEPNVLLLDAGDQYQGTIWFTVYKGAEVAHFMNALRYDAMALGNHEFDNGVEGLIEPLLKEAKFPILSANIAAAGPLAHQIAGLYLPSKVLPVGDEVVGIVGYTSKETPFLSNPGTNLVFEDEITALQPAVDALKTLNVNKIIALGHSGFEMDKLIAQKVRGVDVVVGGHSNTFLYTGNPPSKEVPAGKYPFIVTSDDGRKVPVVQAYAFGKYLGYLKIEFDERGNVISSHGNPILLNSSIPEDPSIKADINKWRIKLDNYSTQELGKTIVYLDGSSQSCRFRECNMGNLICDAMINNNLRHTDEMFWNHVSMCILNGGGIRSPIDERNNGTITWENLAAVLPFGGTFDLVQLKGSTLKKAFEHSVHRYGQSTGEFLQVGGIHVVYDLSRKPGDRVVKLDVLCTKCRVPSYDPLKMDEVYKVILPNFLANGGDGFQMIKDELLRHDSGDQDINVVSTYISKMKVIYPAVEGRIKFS
The experiment can be described thus: flow cytometry titration on HEK-293T cells transfected with CD73 mutant 4. As to the method: (§3) Anti-CD73 antibodies are tested for their binding to each mutant by flow cytometry. A first experiment is performed to determine antibodies that lose their binding to one or several mutants at one concentration. To confirm a loss of binding, titration of antibodies is done on antibodies for which binding seemed to be affected by the CD73 mutations (1-0.1-0.01-0.001 μg/ml).

Experiment [3] concerns the target T1, human CD73 (ecto-5'-nucleotidase) …. As to the kind of experiment: flow cytometry titration on HEK-293T cells transfected with wild type human CD73. As to the method: as §3
The target in the next experiment is T5, human CD73 mutant 2 (human, UniProt P21589 27-549).
T5 construct: Transfected in HEK-293T cells; The cell prints A1071, read as A107I
T5 chain: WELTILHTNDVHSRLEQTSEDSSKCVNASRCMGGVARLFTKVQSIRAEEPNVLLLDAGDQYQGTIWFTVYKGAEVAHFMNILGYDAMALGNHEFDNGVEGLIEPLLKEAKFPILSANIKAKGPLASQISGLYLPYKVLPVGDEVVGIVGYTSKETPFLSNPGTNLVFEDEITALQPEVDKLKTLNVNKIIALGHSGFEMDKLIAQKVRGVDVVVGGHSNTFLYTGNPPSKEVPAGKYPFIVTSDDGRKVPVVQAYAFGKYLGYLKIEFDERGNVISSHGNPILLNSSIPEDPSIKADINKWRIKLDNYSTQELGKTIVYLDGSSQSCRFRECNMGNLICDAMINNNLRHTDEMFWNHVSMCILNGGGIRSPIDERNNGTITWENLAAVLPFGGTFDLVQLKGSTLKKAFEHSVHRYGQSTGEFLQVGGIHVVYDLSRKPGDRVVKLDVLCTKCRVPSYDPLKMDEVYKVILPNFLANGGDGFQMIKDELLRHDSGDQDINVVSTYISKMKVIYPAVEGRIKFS
As to the kind of experiment: flow cytometry titration on HEK-293T cells transfected with CD73 mutant 2. As to the method:
as §3

The target of experiment [4] is T6, recombinant human CD73-His extracellular domain protein, soluble dimer (human, UniProt P21589 27-547).
T6 construct: also called huCD73 protein; human recombinant soluble dimeric CD73
T6 sequence: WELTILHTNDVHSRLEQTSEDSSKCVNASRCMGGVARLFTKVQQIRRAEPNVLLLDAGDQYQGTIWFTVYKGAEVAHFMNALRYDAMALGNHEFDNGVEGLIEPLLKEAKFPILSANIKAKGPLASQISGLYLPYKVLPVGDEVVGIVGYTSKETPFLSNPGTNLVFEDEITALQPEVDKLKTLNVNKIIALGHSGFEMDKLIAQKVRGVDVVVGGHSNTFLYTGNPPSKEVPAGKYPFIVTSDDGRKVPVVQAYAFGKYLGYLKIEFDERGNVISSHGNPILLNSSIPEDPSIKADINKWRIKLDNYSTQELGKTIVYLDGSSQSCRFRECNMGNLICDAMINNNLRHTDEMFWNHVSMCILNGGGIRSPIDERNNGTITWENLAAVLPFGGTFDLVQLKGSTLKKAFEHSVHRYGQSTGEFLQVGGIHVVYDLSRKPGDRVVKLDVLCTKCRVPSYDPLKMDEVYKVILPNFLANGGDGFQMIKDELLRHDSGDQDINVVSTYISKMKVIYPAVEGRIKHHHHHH
As to the kind of experiment: SPR (Biacore T100, 25 °C), antibody captured on Protein-A, soluble dimeric CD73 injected 1.23 to 300 nM, 1:1 kinetic model, bivalent affinity. As to the method:
SPR measurements were performed on a Biacore T100 apparatus (Biacore GE Healthcare) at 25° C. In all Biacore experiments HBS-EP+(Biacore GE Healthcare) and NaOH 10 mM served as running buffer and regeneration buffer respectively. Sensorgrams were analyzed with Biacore T100 Evaluation software. Protein-A was purchase from (GE Healthcare). Human soluble dimeric CD73 proteins were cloned, produced and purified at Innate Pharma.
Protein-A proteins were immobilized covalently to carboxyl groups in the dextran layer on a Sensor Chip CMS. The chip surface was activated with EDC/NHS (N-ethyl-N′-(3-dimethylaminopropyl) carbodiimide hydrochloride and N-hydroxysuccinimide (Biacore GE Healthcare). Protein-A was diluted to 10 μg/ml in coupling buffer (10 mM acetate, pH 5.6) and injected until the appropriate immobilization level was reached (i.e. 2000 RU). Deactivation of the remaining activated groups was performed using 100 mM ethanolamine pH 8 (Biacore GE Healthcare).
Affinity study was carried out according to a standard Capture-Kinetic protocol recommended by the manufacturer (Biacore GE Healthcare kinetic wizard). Serial dilutions of human recombinant soluble dimeric CD73 proteins, ranging from 1.23 to 300 nM were sequentially injected over the captured anti-CD73 antibodies and allowed to dissociate for 10 min before regeneration. […]
(SPR reads the build-up and loss of mass on a sensor chip optically.)

The target of experiment [5] is T7, mouse CD73 expressed at the cell surface (mouse, UniProt Q61503 29-551).
T7 construct: whole, on cells; Recombinant cell line expressing mouse CD73; also called moCD73
T7 sequence (looked up): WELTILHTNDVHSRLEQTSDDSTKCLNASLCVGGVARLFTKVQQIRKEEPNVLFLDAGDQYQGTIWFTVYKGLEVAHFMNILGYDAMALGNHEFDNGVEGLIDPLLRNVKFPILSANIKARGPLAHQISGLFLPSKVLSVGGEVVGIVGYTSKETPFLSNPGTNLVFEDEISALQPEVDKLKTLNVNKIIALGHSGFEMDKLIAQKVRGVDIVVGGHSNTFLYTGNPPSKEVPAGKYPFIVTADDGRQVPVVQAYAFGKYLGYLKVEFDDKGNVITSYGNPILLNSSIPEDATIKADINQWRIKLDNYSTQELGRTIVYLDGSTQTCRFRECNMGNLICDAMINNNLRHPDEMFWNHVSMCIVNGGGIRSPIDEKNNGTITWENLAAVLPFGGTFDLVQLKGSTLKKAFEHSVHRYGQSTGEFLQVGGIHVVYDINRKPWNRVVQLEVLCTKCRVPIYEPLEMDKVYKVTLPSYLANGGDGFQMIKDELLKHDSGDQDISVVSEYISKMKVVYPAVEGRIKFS
The experiment can be described thus: flow cytometry titration on a cell line expressing mouse CD73. As to the method:
as §1, §2

The target in experiment [6] is T8, cynomolgus CD73 expressed at the cell surface (cynomolgus).
T8 construct: whole, on cells; Recombinant cell line expressing cynomolgus CD73; also called cynoCD73
As to the kind of experiment: flow cytometry titration on cynomolgus-CD73-expressing cell line. As to the method:
as §1, §2

B1: antibody AD2 (Biolegend Corp, product ref. 344004) (antibody, V domains shown)
VH: EVQLQQSGAELVKPGASVKLSCTASGFNIKDTYIHWVKQRPEQGLEWIGRIDPATGNTEYDPKFQGKATITADTSSNTAYLHLSSLTSEDTAVYYCARGYYGSSYPPWFAYWGQGTLVTVS
VL: DIVMTQSHKFMSTSVGDRVSITCKASQDVGSAVAWYQQKPGQSPKLLIYWASTRHTGVPDRFTGSGSGTDFTLTISNVQSEDLADYFCQQYSSYPLTFGAGTKLELK
With B1, the EC50 turned out to be 0.743 µg/mL in experiment [1] and 0.431 µg/mL in experiment [2]. The “fold higher concentration (EC50) than 7H10” value in experiment [1] was about 4 fold. The “EC50 (read off the curve)” value with human CD73 mutant 3 is about 0.1 µg/mL; in the experiment with human CD73 mutant 5, about 0.07 µg/mL; with human CD73 mutant 4, about 0.06 µg/mL; in experiment [3], about 0.2 µg/mL.

B2: antibody 12F9 (antibody, human IgG1, V domains shown)
VH: QVQLQQSGPELVKPGASVRISCKASGYTFTNYYIHWVKQRPGQGLEWIGWIYPGNVNTKYNEKFKGKATLTADKSSNTAYMQLSSLTSEDSAVYFCAREGGYDRYALDYWGQGTSVTVSS
VL: QIVLTQSPALMSASPGEKVTMTCSASSSVSYMYWYQQKPRSSPKPWIYLTSNLASGVPARFSGSGSGTSYSLTISSMEAEDAATYYCQQWSSNPLTFGAGTKLELK
Turning to B2, the concentration giving a half-maximal response (EC50) was 0.137 µg/mL in experiment [1], 0.036 µg/mL in experiment [2] and 0.527 µg/mL in experiment [6]. In addition, the “EC50 (read off the curve)” value (with human CD73 mutant 2; in experiment [3]) was about 0.2 µg/mL in each case. Also, the Kd in experiment [4] worked out at 0.938 nM. Further, in experiment [5], the binding result was “no binding (tested: 10 µg/ml)”.

In general, EC50 refers to the concentration that produces a half-maximal response. As usually defined, the EC50 (read off the curve) is the concentration giving half of the maximal effect. Low values mean an effect from little substance, high ones a need for much substance.
